This is an account of results in paper PMC2683204.

The term stoichiometry N denotes the number of molecules, sites or subunits per partner or assembly.

For the test, the target named is Fluorescein-maleamide labeled purified FN (UniProt P02751). Nature of the test: SDS-PAGE, non-reducing against reducing.

On to “Fluorescein-maleamide labeled purified FN (from UniProt P02751 32-2477) (natural protein)”, for which the stoichiometry N was 2.
